The experiment addresses FtsH (E. coli, UniProt P0AAI3 1-644). Nature of the experiment: cross-linking.

Chain of FtsH (P0AAI3 whole entry): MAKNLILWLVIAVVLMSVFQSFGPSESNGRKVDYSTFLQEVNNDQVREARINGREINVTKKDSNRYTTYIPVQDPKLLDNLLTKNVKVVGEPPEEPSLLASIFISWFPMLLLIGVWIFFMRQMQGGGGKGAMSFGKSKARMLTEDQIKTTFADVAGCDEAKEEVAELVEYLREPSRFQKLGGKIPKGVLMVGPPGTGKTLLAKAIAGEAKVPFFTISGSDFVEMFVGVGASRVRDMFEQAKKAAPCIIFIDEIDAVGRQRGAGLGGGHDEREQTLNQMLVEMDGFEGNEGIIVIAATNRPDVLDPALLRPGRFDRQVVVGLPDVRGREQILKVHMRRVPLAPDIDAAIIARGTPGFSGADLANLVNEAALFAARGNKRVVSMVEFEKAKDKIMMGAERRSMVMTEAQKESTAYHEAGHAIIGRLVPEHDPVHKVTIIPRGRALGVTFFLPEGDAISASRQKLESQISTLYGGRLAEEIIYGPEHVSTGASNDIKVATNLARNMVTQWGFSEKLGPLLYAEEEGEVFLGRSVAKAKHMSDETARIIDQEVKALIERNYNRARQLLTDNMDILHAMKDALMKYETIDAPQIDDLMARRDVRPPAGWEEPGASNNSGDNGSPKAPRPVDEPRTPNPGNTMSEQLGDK

B1: HflK (natural protein, E. coli)
chain: MAWNQPGNNGQDRDPWGSSKPGGNSEGNGNKGGRDQGPPDLDDIFRKLSKKLGGLGGGKGTGSGGGSSSQGPRPQLGGRVVTIAAAAIVIIWAASGFYTIKEAERGVVTRFGKFSHLVEPGLNWKPTFIDEVKPVNVEAVRELAASGVMLTSDENVVRVEMNVQYRVTNPEKYLYSVTSPDDSLRQATDSALRGVIGKYTMDRILTEGRTVIRSDTQRELEETIRPYDMGITLLDVNFQAARPPEEVKAAFDDAIAARENEQQYIREAEAYTNEVQPRANGQAQRILEEARAYKAQTILEAQGEVARFAKLLPEYKAAPEITRERLYIETMEKVLGNTRKVLVNDKGGNLMVLPLDQMLKGGNAPAAKSDNGASNLLRLPPASSSTTSGASNTSSTSQGDIMDQRRANAQRNDYQRQGE
Take B1: the binding result was “binds”.

B2: HflC (natural protein, E. coli)
chain: MRKSVIAIIIIVLVVLYMSVFVVKEGERGITLRFGKVLRDDDNKPLVYEPGLHFKIPFIETVKMLDARIQTMDNQADRFVTKEKKDLIVDSYIKWRISDFSRYYLATGGGDISQAEVLLKRKFSDRLRSEIGRLDVKDIVTDSRGRLTLEVRDALNSGSAGTEDEVTTPAADNAIAEAAERVTAETKGKVPVINPNSMAALGIEVVDVRIKQINLPTEVSEAIYNRMRAEREAVARRHRSQGQEEAEKLRATADYEVTRTLAEAERQGRIMRGEGDAEAAKLFADAFSKDPDFYAFIRSLRAYENSFSGNQDVMVMSPDSDFFRYMKTPTSATR
With B2, the binding result is “binds”.
